Laboratory results: patent US20190085311
Changes are numbered by the printed parent chain. Names may count otherwise.

B1: D160S/K196S + N107W + E106G (protein)
chain: QAKPQIPKDKSKVAGYIEIPDADIKEPVYPGPATPEQLNRGVSFAEGWESLDDQNISIAGHTFIDRPNYQFTNLKAAKKGSMVYFKVGNETRKYKMTSIRSVKPTDVGVLDEQKGKDKQLTLITCDDYNEKTGVWESRKIFVATEVK
B2: D160S/K196S + F144L (protein)
chain: B1 chain with G47E, W48N, F85L
B3: D160S/K196S + G167E (protein)
chain: B1 chain with G47E, W48N, G108E
B4: D160S/K196S + A61E (protein)
chain: B1 chain with A2E, G47E, W48N
B5: D160S/K196S + A61T (protein)
chain: B1 chain with A2T, G47E, W48N
B6: Reference 2: P94R/D160N/D165A/G167E/K190E/K196T from U.S. Pat. No. 9,267,127 (SEQ ID NO: 52) (protein)
chain: MQAKPQIPKDKSKVAGYIEIPDADIKEPVYPGPATREQLNRGVSFAEENESLDDQNISIAGHTFIDRPNYQFTNLKAAKKGSMVYFKVGNETRKYKMTSIRNVKPTAVEVLDEQKGKDKQLTLITCDDYNEETGVWEKRKIFVATEVK
B7: D160S/K196S + N107W + G167E (protein)
chain: B1 chain with G47E, G108E
B8: D160S/K196S + F144L + G167E (protein)
chain: B1 chain with G47E, W48N, F85L, G108E
B9: D160S/K196S + N107W + F144L (protein)
chain: B1 chain with G47E, F85L
B10: D160S/K196S + N107W + F144L + G167E (protein)
chain: B1 chain with G47E, F85L, G108E
B11: D160S/K196S + E106G (protein)
chain: B1 chain with W48N
B12: D160S/K196S + N107W (protein)
chain: B1 chain with G47E

Target: glucose dehydrogenase containing the LPETG motif

First: B1
Second: B2
The “relative apparent “Km” for LPXTG” value of the first is higher: 107% for the first, 100% for the second.

First: B3
Second: B4
The “relative apparent “Km” for LPXTG” value of the first is higher: 131% for the first, 100% for the second.

Going from B5 to B7, the “relative apparent “Km” for LPXTG” value rises from 97% to 166%.

First: B8
Second: B9
The “relative apparent “Km” for LPXTG” value of the first is higher: 166% for the first, 134% for the second.

Compared with B10, B11 is lower in “relative apparent “Km” for LPXTG” value: 197% for the first, 121% for the second.

For B12, the “relative apparent “Km” for LPXTG” value was 121%.

With B6 the “relative apparent “Km” for LPXTG” value was “lower”.
